Experimental findings from publication PMC8847575, “HSL1 and BAM1/2 impact epidermal cell development by sensing distinct signaling peptides” (Nature Communications, 2022) are described below.

Square brackets hold non-standard residues; d marks the D form. Ends that are not written are not given here. Hyp = O=C(O)[C@@H]1C[C@@H](O)CN1

Test [1] deals with T1, biotinylated HSL1 ectodomain with Avi-tag (Arabidopsis, UniProt Q9SGP2 17-618, biotin on the Avi-tag (BirA)).
T1 chain: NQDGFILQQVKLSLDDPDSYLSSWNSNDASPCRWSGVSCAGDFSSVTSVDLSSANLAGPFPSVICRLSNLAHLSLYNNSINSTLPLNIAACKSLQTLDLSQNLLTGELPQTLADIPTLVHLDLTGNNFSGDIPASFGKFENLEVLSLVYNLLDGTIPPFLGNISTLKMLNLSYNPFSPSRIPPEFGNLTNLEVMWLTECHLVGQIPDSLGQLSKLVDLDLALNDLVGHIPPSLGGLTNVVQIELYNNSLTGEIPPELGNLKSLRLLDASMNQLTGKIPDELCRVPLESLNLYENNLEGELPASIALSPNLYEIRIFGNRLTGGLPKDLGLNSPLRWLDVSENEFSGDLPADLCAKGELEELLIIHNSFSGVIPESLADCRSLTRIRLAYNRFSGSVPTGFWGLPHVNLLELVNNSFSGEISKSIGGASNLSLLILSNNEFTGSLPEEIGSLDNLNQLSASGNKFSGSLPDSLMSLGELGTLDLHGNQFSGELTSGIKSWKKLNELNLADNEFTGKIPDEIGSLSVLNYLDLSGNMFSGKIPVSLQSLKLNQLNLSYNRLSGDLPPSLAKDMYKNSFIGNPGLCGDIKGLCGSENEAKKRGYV
In words: GCI, with IDL4.

In test [2] the target is T1, biotinylated HSL1 ectodomain with …. In words: GCI, with IDL3.
The target of test [3] is T2, HSL1 (HAESA-LIKE 1) ectodomain (Arabidopsis, UniProt Q9SGP2 17-618).
T2 chain: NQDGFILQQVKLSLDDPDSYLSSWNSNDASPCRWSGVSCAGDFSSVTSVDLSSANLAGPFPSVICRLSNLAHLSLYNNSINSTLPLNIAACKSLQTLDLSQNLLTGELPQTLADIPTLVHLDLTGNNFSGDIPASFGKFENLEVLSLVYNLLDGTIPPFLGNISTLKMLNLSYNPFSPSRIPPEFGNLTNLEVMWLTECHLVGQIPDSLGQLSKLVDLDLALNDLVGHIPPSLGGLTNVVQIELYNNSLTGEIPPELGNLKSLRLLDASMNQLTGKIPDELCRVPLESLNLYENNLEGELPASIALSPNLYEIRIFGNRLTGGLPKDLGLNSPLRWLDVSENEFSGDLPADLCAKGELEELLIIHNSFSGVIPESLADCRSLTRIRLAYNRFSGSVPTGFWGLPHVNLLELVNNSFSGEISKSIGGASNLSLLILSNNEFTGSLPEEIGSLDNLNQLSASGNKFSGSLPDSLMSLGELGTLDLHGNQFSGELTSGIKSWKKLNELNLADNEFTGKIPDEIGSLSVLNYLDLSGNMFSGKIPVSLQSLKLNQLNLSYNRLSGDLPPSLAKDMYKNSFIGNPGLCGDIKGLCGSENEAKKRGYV
The experiment in a line: ITC; with IDL2.

Test [4] has as its target T1, biotinylated HSL1 ectodomain with …. The experiment in a line: GCI, with IDL1.
The target is the same in test [5]. The experiment in a line: GCI, with IDL2.
Test [6] concerns the target T2, HSL1 (HAESA-LIKE 1) ectodomain. In words: ITC; with IDL4.
Test [7] concerns the target T1, biotinylated HSL1 ectodomain with …. The experiment in a line: in presence of IDL3.
The target is the same in test [8]. In words: in presence of IDL4.
The target in test [9] is T2, HSL1 (HAESA-LIKE 1) ectodomain. The experiment in a line: ITC; with CLE9^N116S.
For test [10], the target named is T1, biotinylated HSL1 ectodomain with …. In words: in presence of IDL1.
Test [11] addresses T2, HSL1 (HAESA-LIKE 1) ectodomain. In words: ITC; with IDL1.
Test [12] deals with T1, biotinylated HSL1 ectodomain with …. The experiment in a line: in presence of IDL3.
Test [13] has the same target. The experiment in a line: GCI, with IDA.
Test [14] concerns the target T2, HSL1 (HAESA-LIKE 1) ectodomain. The experiment in a line: ITC; with IDL3.
The target of test [15] is T1, biotinylated HSL1 ectodomain with …. In words: GCI, with IDL1.
For test [16] the target is unchanged. In words: in presence of IDL4.
Test [17] has the same target. The experiment in a line: in presence of IDL2.
For test [18] the target is unchanged. In words: in presence of IDL1.
Test [19] shares this target. The experiment in a line: in presence of IDL2.
Test [20] shares this target. In words: GCI, with IDL3.
For test [21], the target named is T2, HSL1 (HAESA-LIKE 1) ectodomain. The experiment in a line: ITC; with IDA.
In test [22] the target is T3, BAM1 (BARELY ANY MERISTEM 1) ectodomain (Arabidopsis, UniProt O49545 20-637).
T3 construct: BAM1 LRR receptor kinase ectodomain, Arabidopsis, residues 20-637, AT5G65700; codon optimised; secreted with an azurocidin or Drosophila BiP signal peptide; also called BAM1 extracellular domain; BAM1 LRR ectodomain; source: Trichoplusia ni Tnao38 cells (baculovirus), secreted, purified (Ni2+, Strep-Tactin, TEV cleavage, second Ni2+, SEC)
T3 sequence (looked up): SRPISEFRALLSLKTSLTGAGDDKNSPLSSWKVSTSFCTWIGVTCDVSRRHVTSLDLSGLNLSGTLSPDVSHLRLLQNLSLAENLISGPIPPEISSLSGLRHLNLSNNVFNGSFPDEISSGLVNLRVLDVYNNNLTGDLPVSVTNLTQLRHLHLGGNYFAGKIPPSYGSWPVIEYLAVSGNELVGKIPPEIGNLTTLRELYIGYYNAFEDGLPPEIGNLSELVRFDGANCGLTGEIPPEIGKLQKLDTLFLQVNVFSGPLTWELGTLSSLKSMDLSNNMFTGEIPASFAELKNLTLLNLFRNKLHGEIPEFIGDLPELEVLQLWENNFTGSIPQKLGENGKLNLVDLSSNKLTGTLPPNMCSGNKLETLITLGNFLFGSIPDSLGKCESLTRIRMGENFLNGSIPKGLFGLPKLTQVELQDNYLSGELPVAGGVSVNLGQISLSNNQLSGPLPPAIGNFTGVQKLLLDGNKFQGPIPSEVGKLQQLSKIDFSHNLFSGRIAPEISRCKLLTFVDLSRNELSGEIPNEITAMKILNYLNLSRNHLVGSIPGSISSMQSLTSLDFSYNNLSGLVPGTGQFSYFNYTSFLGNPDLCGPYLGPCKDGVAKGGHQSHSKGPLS
The experiment in a line: ITC; peptide (75 to 600 µM) injected into 10 to 30 µM HSL1 or BAM1 ectodomain in the cell; 25 °C; 20 mM sodium citrate pH 5.0, 150 mM NaCl; N fitted to 1. Conditions: both partners purified.

Test [23] addresses T4, SERK1 (SOMATIC EMBRYOGENESIS RECEPTOR KINASE 1) ectodomain (Arabidopsis, UniProt Q94AG2 24-213).
T4 construct: SERK1 ectodomain, Arabidopsis, residues 24-213, AT1G71830; codon optimised; secreted with an azurocidin or Drosophila BiP signal peptide; also called co-receptor SERK1; source: Trichoplusia ni Tnao38 cells (baculovirus), secreted, purified (Ni2+, Strep-Tactin, TEV cleavage, second Ni2+, SEC)
T4 sequence (looked up): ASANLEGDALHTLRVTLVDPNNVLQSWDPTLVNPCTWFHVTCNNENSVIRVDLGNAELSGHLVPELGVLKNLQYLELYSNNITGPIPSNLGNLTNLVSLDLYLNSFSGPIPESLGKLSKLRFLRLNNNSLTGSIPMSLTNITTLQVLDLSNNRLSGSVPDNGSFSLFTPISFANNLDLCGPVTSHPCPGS
In words: crystal structure; HSL1-CLE9-SERK1, mixed 1:1:1.5; 0.2 M K/Na tartrate, 20% PEG 3350; 2.87 Å. As to conditions: both partners purified.

Test [24] has as its target T2, HSL1 (HAESA-LIKE 1) ectodomain. In words: ITC.
For test [25], the target named is T5, HSL1 (HAESA-LIKE 1) ectodomain (Arabidopsis, UniProt Q9SGP2 17-618).
T5 construct: HSL1 LRR receptor kinase ectodomain, Arabidopsis, residues 17-618, AT1G28440; codon optimised; secreted with an azurocidin or Drosophila BiP signal peptide; also called isolated HSL1 ectodomain; LRR-RK HSL1; source: Trichoplusia ni Tnao38 cells (baculovirus), secreted, purified (Ni2+, Strep-Tactin, TEV cleavage, second Ni2+, SEC)
T5 sequence (looked up): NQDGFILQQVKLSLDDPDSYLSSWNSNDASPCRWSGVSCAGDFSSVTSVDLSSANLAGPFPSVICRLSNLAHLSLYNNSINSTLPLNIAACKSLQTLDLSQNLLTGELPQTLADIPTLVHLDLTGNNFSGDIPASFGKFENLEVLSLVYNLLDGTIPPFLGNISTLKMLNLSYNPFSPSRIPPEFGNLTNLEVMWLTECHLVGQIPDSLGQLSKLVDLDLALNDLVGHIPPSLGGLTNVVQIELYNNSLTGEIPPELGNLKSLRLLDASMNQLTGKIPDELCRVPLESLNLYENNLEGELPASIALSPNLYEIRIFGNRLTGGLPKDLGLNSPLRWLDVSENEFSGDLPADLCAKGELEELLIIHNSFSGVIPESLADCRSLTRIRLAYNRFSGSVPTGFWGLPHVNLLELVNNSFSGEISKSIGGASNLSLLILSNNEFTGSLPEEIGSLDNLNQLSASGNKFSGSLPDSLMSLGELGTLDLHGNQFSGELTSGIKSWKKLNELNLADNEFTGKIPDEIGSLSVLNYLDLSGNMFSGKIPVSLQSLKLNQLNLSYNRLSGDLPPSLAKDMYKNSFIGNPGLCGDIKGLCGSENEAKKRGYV
In words: ITC; peptide (75 to 600 µM) injected into 10 to 30 µM HSL1 or BAM1 ectodomain in the cell; 25 °C; 20 mM sodium citrate pH 5.0, 150 mM NaCl; N fitted to 1. Conditions: both partners purified.

B1: SERK1 (SOMATIC EMBRYOGENESIS RECEPTOR KINASE 1) ectodomain (domain or fragment)
chain: ASANLEGDALHTLRVTLVDPNNVLQSWDPTLVNPCTWFHVTCNNENSVIRVDLGNAELSGHLVPELGVLKNLQYLELYSNNITGPIPSNLGNLTNLVSLDLYLNSFSGPIPESLGKLSKLRFLRLNNNSLTGSIPMSLTNITTLQVLDLSNNRLSGSVPDNGSFSLFTPISFANNLDLCGPVTSHPCPGS
In the case of B1, the Kd was 12.5 nM in [1]; 16 nM in test [3]; 12.5 nM in test [4]; 9 nM in test [5]; 49 nM in test [6]; 8.5 nM in test [7]. Further, the dissociation constant (Kd) in test [9] stood at 170 nM; in test [11] it was 44 nM; in [13], 9 nM; in [14], 26 nM; in test [16] it was 10.7 nM; in test [17], 1.5 nM. The equilibrium dissociation constant (Kd) in [18] stood at 12.5 nM; in test [20] it was 1 nM; in test [21], 22 nM. Besides, the koff in test [2] stood at 3e-05 s⁻¹; in test [8], 0.00013 s⁻¹; in test [10], 0.00018 s⁻¹; in test [12], 0.00026 s⁻¹; in test [15] it was 0.00018 s⁻¹; in test [19], 0.00011 s⁻¹.

B2: CLE9 mature peptide (peptide, UniProt Q9FZE4 109-120, looked up)
peptide: RLV[Hyp]SG[Hyp]NPLHN
notes: CLE9 mature dodecapeptide, AT1G26600; printed residues R109, L110, V111, Hyp112, Ser113, Hyp115, Asn116; also called wild-type CLE9 peptide
For the molecule B2, in [22], the dissociation constant Kd was determined as 100 nM. The binding result in test [23] is given as “binds”.

B3: CLE9^N116S peptide (peptide, UniProt Q9FZE4 109-120, looked up)
peptide: RLVPSGPSPLHN
notes: CLE9 mature dodecapeptide with Asn116 changed to Ser; also called Asn116^CLE9 to a Ser
In [24], B3 came in with a Kd of 7150 nM. Moreover, the binding result in [25] is “binds”.
